# Source: PMC4335047, “Interaction between the tRNA-Binding and C-Terminal Domains of Yeast Gcn2 Regulates Kinase Activity In Vivo” (PLoS Genetics, 2015)
# Experiments:
# Assay in all cases: pull-down; purified GST fusions (5 μg) immobilised on glutathione-Sepharose 4B beads; in vitro translated [35S]-HisRS(970–1497), partially purified by ammonium sulfate precipitation; buffer A, 4°C, 2 h; without or with increasing tRNA^Phe or a model mRNA; fluorography
# Conditions in all cases: one partner purified
# [1] = molecular target: T1, GST-HisRS (Gcn2 residues 970–1497), wild type (S. cerevisiae, UniProt P15442 970-1497)
# T1 construct: Gcn2 of S. cerevisiae, HisRS-related domain, residues 970-1497; also called WT GST-HisRS; GST-HisRS (970–1497); not shown: GST, N-terminal, kept
# T1 sequence (looked up): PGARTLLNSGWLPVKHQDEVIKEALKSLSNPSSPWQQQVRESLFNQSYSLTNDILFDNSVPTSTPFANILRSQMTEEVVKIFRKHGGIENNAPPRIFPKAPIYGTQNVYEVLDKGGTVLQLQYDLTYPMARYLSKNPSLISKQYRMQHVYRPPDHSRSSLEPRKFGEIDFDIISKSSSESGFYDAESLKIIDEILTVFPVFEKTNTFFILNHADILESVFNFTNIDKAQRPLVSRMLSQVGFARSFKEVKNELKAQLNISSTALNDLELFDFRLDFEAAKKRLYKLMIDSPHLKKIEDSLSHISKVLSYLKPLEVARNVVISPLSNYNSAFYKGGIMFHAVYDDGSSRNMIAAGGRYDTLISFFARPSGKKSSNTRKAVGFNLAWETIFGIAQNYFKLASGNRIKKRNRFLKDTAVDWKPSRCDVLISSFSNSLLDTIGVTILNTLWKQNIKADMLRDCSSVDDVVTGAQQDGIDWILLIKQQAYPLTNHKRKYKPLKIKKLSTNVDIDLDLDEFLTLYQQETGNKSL
# [2] = molecular target: T2, GST-KD (Gcn2 residues 568–998) (S. cerevisiae, UniProt P15442 568-998)
# T2 construct: Gcn2 of S. cerevisiae, kinase domain (KD), residues 568-998; a pGEX vector with the tac promoter points to E. coli; also called GST-GCN2(568–998); source: purified GST fusion (P tac, pGEX-5x-1); not shown: GST, N-terminal, kept
# [3] = molecular target: T3, GST-CTD (Gcn2 residues 1498–1659) (S. cerevisiae, UniProt P15442 1498-1659)
# T3 construct: Gcn2 of S. cerevisiae, C-terminal domain (CTD), residues 1498-1659; a pGEX vector with the tac promoter points to E. coli; also called GST-GCN2(1498–1659); source: purified GST fusion (P tac, pGEX-5x-1); not shown: GST, N-terminal, kept
# T3 sequence (looked up): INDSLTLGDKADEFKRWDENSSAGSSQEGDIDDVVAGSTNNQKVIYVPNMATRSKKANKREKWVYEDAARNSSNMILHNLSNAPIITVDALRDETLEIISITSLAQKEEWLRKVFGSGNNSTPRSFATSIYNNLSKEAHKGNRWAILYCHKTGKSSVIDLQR
# T2 sequence (P15442 568-998): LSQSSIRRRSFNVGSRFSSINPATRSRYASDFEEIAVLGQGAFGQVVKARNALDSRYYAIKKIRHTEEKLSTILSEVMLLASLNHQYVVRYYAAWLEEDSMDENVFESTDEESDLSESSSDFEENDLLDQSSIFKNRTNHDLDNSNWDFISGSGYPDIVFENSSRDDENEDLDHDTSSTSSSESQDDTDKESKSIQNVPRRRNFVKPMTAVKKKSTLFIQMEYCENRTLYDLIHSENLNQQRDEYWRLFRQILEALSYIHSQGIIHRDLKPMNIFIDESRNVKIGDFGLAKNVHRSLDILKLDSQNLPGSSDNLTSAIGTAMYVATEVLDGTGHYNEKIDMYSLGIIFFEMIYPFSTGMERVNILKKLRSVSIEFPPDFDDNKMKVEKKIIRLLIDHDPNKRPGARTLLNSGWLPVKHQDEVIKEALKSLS
binder,measurement,setting,value
"[35S]-HisRS(970–1497) segment of Gcn2 (domain or fragment, S. cerevisiae, UniProt P15442 970-1497, looked up, [35S]-methionine labeled, Gcn2 of S. cerevisiae, HisRS-related domain, residues 970-1497; P T7-GCN2 (970–1497) in pGEM-3Z; also called [^35S]-methionine labeled HisRS fragment; [^35S]-HisRS domain fragments; source: in vitro translated (TNT T7 Coupled Reticulocyte Lysate System), partially purified by ammonium sulfate precipitation) PGARTLLNSGWLPVKHQDEVIKEALKSLSNPSSPWQQQVRESLFNQSYSLTNDILFDNSVPTSTPFANILRSQMTEEVVKIFRKHGGIENNAPPRIFPKAPIYGTQNVYEVLDKGGTVLQLQYDLTYPMARYLSKNPSLISKQYRMQHVYRPPDHSRSSLEPRKFGEIDFDIISKSSSESGFYDAESLKIIDEILTVFPVFEKTNTFFILNHADILESVFNFTNIDKAQRPLVSRMLSQVGFARSFKEVKNELKAQLNISSTALNDLELFDFRLDFEAAKKRLYKLMIDSPHLKKIEDSLSHISKVLSYLKPLEVARNVVISPLSNYNSAFYKGGIMFHAVYDDGSSRNMIAAGGRYDTLISFFARPSGKKSSNTRKAVGFNLAWETIFGIAQNYFKLASGNRIKKRNRFLKDTAVDWKPSRCDVLISSFSNSLLDTIGVTILNTLWKQNIKADMLRDCSSVDDVVTGAQQDGIDWILLIKQQAYPLTNHKRKYKPLKIKKLSTNVDIDLDLDEFLTLYQQETGNKSL",fold reduction of the pull-down on addition of tRNA^Phe,[1],~2.1 fold
same,fold reduction of the pull-down on addition of tRNA^Phe,[2],~1.8 fold
same,fold reduction of the pull-down on addition of tRNA^Phe,[3],~5.4 fold
